The text below walks through data of US20230192860A1 (Bristol-Myers Squibb, published 2023).

Residue numbers refer to the chain shown, from its start. Numbers in names are those of the source.

Experiment [1] addresses T1, BSA (Calbiochem catalog #126593) (UniProt P02769 25-607).
T1 construct: pI control protein
Kind of experiment: SPR 25C, Ab on Protein A, pH 6 and pH 7.4.

The target in experiment [2] is T2, avidin (ThermoFisher Scientific catalog #21128) (UniProt P02701 25-152).
T2 construct: pI control protein
T2 sequence (P02701 25-152 limits assumed): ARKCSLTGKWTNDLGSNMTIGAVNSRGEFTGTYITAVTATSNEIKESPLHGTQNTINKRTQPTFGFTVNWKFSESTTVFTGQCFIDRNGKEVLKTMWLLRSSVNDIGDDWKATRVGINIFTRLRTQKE
Kind of experiment: SPR 25C, Ab on Protein A, pH 6 and pH 7.4.

Experiment [3] deals with T3, monovalent hVISTA-ECD (amino acids 32-193 of SEQ ID NO: 1 with a 7xHis tail) (human, UniProt Q9H7M9 33-193).
T3 construct: analyte of the SPR assays; also called huVISTA-His; human VISTA-ECD
The experiment can be described thus: SPR, Ab on Protein A, hVISTA 100-7.8 nM, pH 7.4 (second row of this ligand). For orientation: SPR reads the build-up and loss of mass on a sensor chip optically.

For experiment [4], the target named is T3, monovalent hVISTA-ECD (amino acids …). Kind of experiment: SPR, Ab on Protein A, hVISTA 100-7.8 nM, pH 7.4. As to the method:
(§1) Further binding kinetic experiments were performed at various pHs on VISTA antibodies described herein by SPR as generally described in Example 9 above. Antibodies were normalized to 50 nM concentration in PBST pH 7.4 and captured on a Protein A CM5 chip (ID 4931) by injecting for 45 seconds at a 5 µL/min flow rate. An 8-point human VISTA titration ([…]) was prepared in PBST at pH 7.4, 6.9, 6.45, and 6.0. Titrations were injected over the captured antibodies for 180 seconds at 30 µL/min. Sensorgrams were fit to a 1:1 binding model in T200 evaluation software and the kinetic constants were reported.

The target is the same in experiment [5]. The experiment can be described thus: SPR, pH 7.4 over pH 6.0. As to the method:
as §1
Each table reports the data at one of the four tested pHs (7.4, 6.9, 6.45, and 6.0, respectively). The 8-point hVISTA titration used in these assays was chosen to provide increased confidence in kinetic values reported at neutral pH conditions. A relatively stringent cutoff for non-binding was applied in this assay. Certain progeny of P1-061029 antibody (P1-068757, ‘759, ‘765, ‘771, and ‘775) show no binding to hVISTA at micromolar concentrations at pH 7.4, while ‘761 and ‘767 show no binding to hVISTA at 100 nM at pH 7.4 but do show binding to hVISTA at micromolar concentrations.

The target is the same in experiment [6]. The experiment can be described thus: SPR 37C, Ab on Protein A, hVISTA-ECD 50-5 nM, pH 7.4, average. As for the experimental part: Binding of several preparations of each of the ‘029 progeny clones and of the parent ‘029 antibodies, formatted as IgG1.3 antibodies, to human VISTA at pH 6.0 and 7.4 was measured by Surface plasmon resonance (SPR). SPR analysis was performed to measure koff and KD binding affinity measurements for VISTA Abs at acidic and neutral pHs using a Biacore® T100 instrument (GE Healthcare). […] Antibodies were diluted to 25 nM in PBST pH 7.4, and were captured across active biosensor flow cells at 5 ul/min for 60 seconds. A concentration series of 50 - 5 nM monovalent hVISTA-ECD (SEQ ID NO: 325) was prepared in pH 7.4 and 6.0 running buffers, and was injected over the captured antibodies at 40 ul/min to measure association and dissociation. Two 15 second injections of 10 mM glycine pH 1.5 were used to regenerate the Protein A capture surface between assay cycles. Rate constants ka (kₒₙ) and kd (koff) were derived from reference flow cell and 0 nM blank-subtracted sensorgrams, and were fit to a 1:1 binding model in Biacore® T200 Evaluation Software v.2.0. The affinity constant, KD was calculated as the ratio of rate constants koff/kₒₙ for each VISTA antibody.

The target is the same in experiment [7]. Kind of experiment: SPR 37C, Ab on Protein A, hVISTA-ECD 50-0.2 nM, pH 6.0. As to the method: (§2) Surface plasmon resonance (SPR) analysis was performed to measure the association rates (defined as ka or kₒₙ, 1/Ms units), dissociation rates (defined as kd or koff, s⁻¹ units) and affinity constants (defined as KD, M units) for VISTA Abs at acidic and physiological pHs using a Biacore® T200 instrument (GE Healthcare). […] Antibodies were diluted to 20 nM in PBST pH 7.4, and were captured across active biosensor flow cells at 5 ul/min for 50 seconds. A concentration series of 50 - 0.2 nM monovalent hVISTA-ECD (SEQ ID NO: 325) was prepared in pH 7.4 and 6.0 running buffers, and was injected over the captured antibodies at 40 ul/min to measure association and dissociation. Two 15 second injections of 10 mM glycine pH 1.5 were used to regenerate the Protein A capture surface between assay cycles. Rate constants kₐ (kₒₙ) and kd (kₒff) were derived from reference flow cell and 0 nM blank-subtracted sensorgrams, and were fit to a 1:1 binding model in Biacore® T200 Evaluation Software v.2.0.

For experiment [8] the target is unchanged. The experiment can be described thus: SPR 37C, Ab on Protein A, hVISTA-ECD 50-5 nM, pH 6.0, average. The procedure, abridged:
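Biacore T100 at 37C: antibodies (IgG1.3 format, 25 nM in PBST pH 7.4) captured on Protein A, then 50 - 5 nM monovalent hVISTA-ECD injected in pH 7.4 or 6.0 running buffer. Reference- and blank-subtracted sensorgrams fit to 1:1 model; KD = koff/kon.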

For experiment [9] the target is unchanged. The experiment can be described thus: SPR 37C, Ab on Protein A, hVISTA-ECD 50-0.2 nM, column headed pH 7 (running buffer pH 7.4 in the text). As to the method: as §2
For experiment [10] the target is unchanged. Kind of experiment: SPR 37C, Ab on Protein A, hVISTA-ECD 50-5 nM, pH 6.0, average; ka printed Too fast, KD ND.
Experiment [11] shares this target. Kind of experiment: SPR 37C, Ab on Protein A, pH 6.0.
Experiment [12] deals with T4, human VISTA on cells (293T cells ectopically expressing full-length human VISTA); AML3 cells and human … (human, UniProt Q9H7M9 33-311).
T4 sequence: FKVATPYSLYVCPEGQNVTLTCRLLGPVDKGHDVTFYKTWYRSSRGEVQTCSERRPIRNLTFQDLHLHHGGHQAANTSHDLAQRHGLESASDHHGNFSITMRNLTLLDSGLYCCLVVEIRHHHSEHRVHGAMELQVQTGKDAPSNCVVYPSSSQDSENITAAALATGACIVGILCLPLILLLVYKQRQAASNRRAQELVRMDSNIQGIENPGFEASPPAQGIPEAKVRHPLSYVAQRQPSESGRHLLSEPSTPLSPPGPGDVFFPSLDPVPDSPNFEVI
Kind of experiment: cell-based or functional assay.

T1 sequence (P02769 25-607 limits assumed): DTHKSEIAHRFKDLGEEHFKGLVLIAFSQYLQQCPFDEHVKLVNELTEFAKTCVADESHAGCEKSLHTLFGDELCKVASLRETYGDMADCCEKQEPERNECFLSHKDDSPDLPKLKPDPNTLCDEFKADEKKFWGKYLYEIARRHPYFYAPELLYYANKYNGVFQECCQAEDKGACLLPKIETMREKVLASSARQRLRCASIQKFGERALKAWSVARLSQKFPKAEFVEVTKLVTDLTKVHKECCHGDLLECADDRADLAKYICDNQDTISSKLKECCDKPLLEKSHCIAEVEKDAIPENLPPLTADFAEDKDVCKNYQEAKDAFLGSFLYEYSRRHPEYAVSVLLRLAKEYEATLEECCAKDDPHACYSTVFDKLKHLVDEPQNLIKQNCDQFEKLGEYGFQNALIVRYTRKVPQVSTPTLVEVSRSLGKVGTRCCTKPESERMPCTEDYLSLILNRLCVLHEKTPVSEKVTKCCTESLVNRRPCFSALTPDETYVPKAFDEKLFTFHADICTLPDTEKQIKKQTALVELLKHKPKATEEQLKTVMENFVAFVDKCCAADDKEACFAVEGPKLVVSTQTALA

B1: P1-068767.IgG1.3 (antibody, V domains shown)
VH: EVQLVESGGGLVQPGKSLRLSCAASGFTLEDYAMHWVRQAPGKGLEWVSGIDWNSENIGYADSVKGRFTISRDNAKNSLYLQMNSLRTEDTALYYCAKVPGYSGGWIDAEDDWGQGTMVTVSS
VL: not shown
notes: IgG1.3; also called P1-068767-22; P1-068767 hIgG1.3f
Consider B1, for which the binding result in experiment [1] and in experiment [2] was “no binding (tested: 10 RU; analyte 100-10 nM)” throughout.

B2: P1-72000 (P1-061029_F100fE_V102D) (antibody, V domains shown)
VH: B1 VH with E30D, D52N, E56A
VL: not shown
notes: also called P1-072000-3
One may read the Kd as the equilibrium constant for the complex coming apart. Usually koff stands for the rate constant with which the complex falls apart. A high value points to a short-lived complex. By kon is commonly meant a measure of how fast the partners come together. With B2, in experiment [3], the Kd turned out to be 1400 nM, the koff was determined as 0.032 s⁻¹ and the kon came to 24000 M⁻¹ s⁻¹. In [4], this molecule displayed a Kd of 2700 nM, a dissociation rate constant (koff) of 0.038 s⁻¹ and a kon of 14000 M⁻¹ s⁻¹. Also, in experiment [5], the “7.4 KD/ 6.0 KD” value was 258 and the “7.4 kd/ 6.0 kd” value amounted to 14.2.

B3: P1-061015.IgG1.3 (antibody, V domains shown)
VH: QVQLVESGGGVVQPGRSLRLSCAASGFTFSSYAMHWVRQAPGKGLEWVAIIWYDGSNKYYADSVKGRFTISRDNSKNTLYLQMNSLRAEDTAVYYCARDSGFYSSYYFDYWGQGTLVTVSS
VL: EIVLTQSPATLSLSPGERATLSCRASQSVSSSYLAWYQQKPGQAPRLLIYDASNRATGIPARFSGSGSGTDFTLTISSLEPEDFATYYCQQYNSYPYTFGQGTKLEIKR
notes: IgG1.3
B3: the Kd in [6] was 8.8 nM; in [8], 0.54 nM; in experiment [4] it was 5.12 nM. For the same molecule, the koff in experiment [6] was 0.002 s⁻¹; in experiment [7], 0.0014 s⁻¹; in experiment [8] it was 0.00095 s⁻¹; in experiment [9], 0.0023 s⁻¹; in experiment [4], 0.00168 s⁻¹. The kon in experiment [6] came out at 230000 M⁻¹ s⁻¹; in [8], 1.8e+06 M⁻¹ s⁻¹; in [4], 329000 M⁻¹ s⁻¹. In addition, the “7.4 KD/ 6.0 KD” value in experiment [5] was determined as 8.2. Besides, the “7.4 kd/ 6.0 kd” value in experiment [5] amounted to 1.1.

B4: P1-068740 (antibody, human IgG1, kappa, V domains shown)
VH: QVQLVESGGGVVQPGRSLRLSCAASGFTFSDYAMHWVRQAPGKGLEWVAIIWYDGSDKDYADSVKGRFTISRDNSKNTLYLQMNSLRAEDTAVYYCARDSGFYDSYYFDDWGQGTLVTVSS
VL: B3 VL
notes: IgG1.3
B4: the off-rate (koff) in experiment [10] stood at 0.047 s⁻¹.

B5: P1-077875 (P1-068748 H31S H32Y) (antibody, V domains shown)
VH: B4 VH with D31S, D57N, K58D, D110Y
VL: EIVLTQSPATLSLSPGERATLSCRASQSVSSSYLAWYQQKPGQAPRLLIYDASNRATGIPARFSGSGSGTDFTLTISSLEPEDFATYYCQQYNSYPYTFGQGTKLEIK
As to B5, the “fold improvement of off-rate against the '748 antibody” value (from here on “fold improvement of off-rate”) in [11] was not above 2 fold.

B6: P1-077867 (P1-068748 H32Y) (antibody, V domains shown)
VH: B4 VH with D31H, D57N, K58D, D110Y
VL: B5 VL
Consider B6, for which, in experiment [11], the “fold improvement of off-rate” value was not above 2 fold.

B7: P1-077865 (P1-068748 H31S) (antibody, V domains shown)
VH: B4 VH with D31S, Y32H, D57N, K58D, D110Y
VL: B5 VL
B7: the “fold improvement of off-rate” value in experiment [11] is not above 2 fold.

B8: P1-077877 (P1-068748 H32Y D57K) (antibody, V domains shown)
VH: B4 VH with D31H, D57N, D110Y
VL: B5 VL
notes: the sister clones carry the VL of P1-061015
For B8, the “fold improvement of off-rate” value in experiment [11] was not above 2 fold.

B9: P1-077883 (P1-068748 H31S D57K) (antibody, V domains shown)
VH: B4 VH with D31S, Y32H, D57N, D110Y
VL: B5 VL
Take B9: the “fold improvement of off-rate” value in experiment [11] was not above 2 fold.

B10: P1-077869 (P1-068748 D57K) (antibody, V domains shown)
VH: B4 VH with D31H, Y32H, D57N, D110Y
VL: B5 VL
Take B10: the “fold improvement of off-rate” value in [11] was not above 2 fold.

B11: VISTA.5 (mAb1) (antibody, V domains shown)
VH: AVQLQESGPGLVRPSQSLSLTCTVTDYSITSDYAWNWIRQFPGSKLEWLGFIGYSGNTNYNPSLESRISITRHTSKNQFFLHLNSMTTEDTATYYCARSLYGGSHWYFDVWGAGTTVTVSS
VL: DIVLTQSPASLAVSLGQRATISCRGSESVEYYGTILMQWYQQKPGQPPKLLIYGASNVESGVPARFSGSGSGTDFSLNIHPVEEDDIAMYFCQQSRKVPWTFGGGTKLEIK
For B11, the “EC50, AML3 viability (Cell Titer Glo) with anti-human IgG secondary antibody-drug conjugate” value in experiment [12] was determined as 0.485 µg/mL.
